Source: patent US6027884

The sequences below were run on Alu I restriction endonuclease (assay: cleavage_in_vitro). Details: first strand cleavage rate constant; 13 uM (AT)2 competitor.
“AAAAAAAAAGCTTTTTTTTT (double strand) [(AA)4 AGCT(TT)4]” showed an activity of 0.0031 min⁻¹. For “AAAAAAAGCTTTTTTT (double strand) [(AA)3 AGCT(TT)3]”, the activity was 0.0039 min⁻¹. “AAAAAGCTTTTT (double strand) [(AA)2 AGCT(TT)2]” was tested, and the activity was 0.0063 min⁻¹. With “AAATATAGCTATATTT (double strand) [(AA)(AT)2 AGCT(AT)2 TT]” the activity was 0.0077 min⁻¹. “ATATATAGCTATATAT (double strand) [(AT)3 AGCT(AT)3]” showed an activity of 0.0115 min⁻¹. Sequence “ATATATATAGCTATATATAT (double strand) [(AT)4 AGCT(AT)4]” has an activity of 0.0093 min⁻¹.

Same assay, conditions: first strand cleavage rate constant; 13 uM (AT)2 competitor, 95 nM labeled duplex
Sequence “ATATAGCTATAT (double strand) [(AT)2 AGCT(AT)2]” has an activity of 0.019 min⁻¹.
